# Measured values from publication PMC5677968, “Familial STAG2 germline mutation defines a new human cohesinopathy” (NPJ Genomic Medicine, 2017).
# Square brackets hold non-standard residues; d marks the D form. Ends that are not written are not given here. pT = C[C@@H](OP(=O)(O)O)[C@H](N)C(=O)O
# T1: STAG2(80–930) p.Ser327Asn–SCC1(281–394) complex (human, UniProt Q8N3U4-2 80-930; O60216 281-394, p.Ser327Asn)
# T1 construct: STAG2 (SA2), human, residues 80-930, patient germline variant p.Ser327Asn; SCC1 (RAD21), human, residues 281-394, in pGEX-6p1; The methods describe only the WT STAG2(80–930) vector; also called purified STAG2–SCC1 p.Ser327Asn; SA2–SCC1 p.Ser327Asn; source: E. coli, co-expressed, purified (Glutathione Sepharose 4B, PreScission cleavage, ion exchange, size exclusion)
# T1 sequence (looked up) 1: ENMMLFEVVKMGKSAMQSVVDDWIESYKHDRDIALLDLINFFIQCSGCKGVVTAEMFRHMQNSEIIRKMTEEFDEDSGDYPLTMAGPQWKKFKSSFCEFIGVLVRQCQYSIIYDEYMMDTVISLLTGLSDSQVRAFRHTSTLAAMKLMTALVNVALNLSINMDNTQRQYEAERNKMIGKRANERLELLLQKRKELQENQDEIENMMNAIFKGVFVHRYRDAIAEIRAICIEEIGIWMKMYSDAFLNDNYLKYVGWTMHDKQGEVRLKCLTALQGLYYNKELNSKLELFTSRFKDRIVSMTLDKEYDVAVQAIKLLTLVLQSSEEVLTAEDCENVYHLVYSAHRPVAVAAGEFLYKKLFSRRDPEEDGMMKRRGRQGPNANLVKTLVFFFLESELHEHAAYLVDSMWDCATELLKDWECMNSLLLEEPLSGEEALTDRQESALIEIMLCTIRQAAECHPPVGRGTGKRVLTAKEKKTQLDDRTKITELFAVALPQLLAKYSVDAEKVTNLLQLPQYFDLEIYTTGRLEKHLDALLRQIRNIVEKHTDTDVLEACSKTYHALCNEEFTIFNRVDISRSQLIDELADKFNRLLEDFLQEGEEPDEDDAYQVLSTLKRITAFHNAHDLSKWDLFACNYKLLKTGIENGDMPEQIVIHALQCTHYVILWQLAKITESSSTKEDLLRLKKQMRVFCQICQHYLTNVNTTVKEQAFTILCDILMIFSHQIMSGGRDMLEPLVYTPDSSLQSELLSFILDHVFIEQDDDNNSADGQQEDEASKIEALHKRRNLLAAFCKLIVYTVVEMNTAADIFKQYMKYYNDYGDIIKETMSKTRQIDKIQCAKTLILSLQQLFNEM
# T1 sequence (looked up) 2: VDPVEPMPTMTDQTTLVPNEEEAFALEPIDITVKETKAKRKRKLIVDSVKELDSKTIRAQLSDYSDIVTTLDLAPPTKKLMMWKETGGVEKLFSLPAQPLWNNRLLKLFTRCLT
# T2: STAG2(80–930)–SCC1(281–394) complex, WT (human, UniProt Q8N3U4-2 80-930; O60216 281-394)
# T2 construct: STAG2 (SA2), human, residues 80-930, in pET28a; SCC1 (RAD21), human, residues 281-394, in pGEX-6p1; also called purified STAG2–SCC1 WT; SA2–SCC1 complex; source: E. coli, co-expressed, purified (Glutathione Sepharose 4B, PreScission cleavage, ion exchange, size exclusion)
# T2 sequence (looked up) 1: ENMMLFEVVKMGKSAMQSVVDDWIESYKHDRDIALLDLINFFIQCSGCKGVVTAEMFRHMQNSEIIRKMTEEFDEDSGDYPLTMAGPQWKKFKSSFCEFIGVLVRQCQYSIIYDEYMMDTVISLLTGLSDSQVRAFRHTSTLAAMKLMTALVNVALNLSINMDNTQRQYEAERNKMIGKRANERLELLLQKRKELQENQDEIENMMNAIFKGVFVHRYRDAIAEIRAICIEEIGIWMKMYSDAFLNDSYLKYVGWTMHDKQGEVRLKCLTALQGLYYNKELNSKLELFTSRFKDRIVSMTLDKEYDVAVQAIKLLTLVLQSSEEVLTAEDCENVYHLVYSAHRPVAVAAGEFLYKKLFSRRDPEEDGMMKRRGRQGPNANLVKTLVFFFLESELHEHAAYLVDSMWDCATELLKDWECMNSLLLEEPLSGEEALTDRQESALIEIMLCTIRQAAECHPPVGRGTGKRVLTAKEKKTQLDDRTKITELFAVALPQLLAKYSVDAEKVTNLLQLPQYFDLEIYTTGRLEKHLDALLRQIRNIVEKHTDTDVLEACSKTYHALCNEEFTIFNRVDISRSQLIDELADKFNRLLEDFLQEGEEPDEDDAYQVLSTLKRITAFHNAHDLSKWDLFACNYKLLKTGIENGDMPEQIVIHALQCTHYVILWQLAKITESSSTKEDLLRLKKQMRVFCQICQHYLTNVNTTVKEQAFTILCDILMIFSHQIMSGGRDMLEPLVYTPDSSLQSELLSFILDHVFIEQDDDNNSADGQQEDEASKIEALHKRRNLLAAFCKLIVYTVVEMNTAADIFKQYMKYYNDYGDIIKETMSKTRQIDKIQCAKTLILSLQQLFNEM
# T2 sequence (looked up) 2: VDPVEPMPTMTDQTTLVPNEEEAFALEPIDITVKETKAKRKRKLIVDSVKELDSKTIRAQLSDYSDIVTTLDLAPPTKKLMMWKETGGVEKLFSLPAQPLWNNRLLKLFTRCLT
# Assays:
# [1] = target: Myc-STAG2 p.Ser327Asn (human) (UniProt Q8N3U4); assay: co-IP; anti-Myc beads, lysates of HeLa Tet-On cells transfected with Myc-STAG2 WT or mutants; 3 h at 4 °C; washes with lysis buffer containing 200 mM NaCl; blots for endogenous proteins
# Chain of Myc-STAG2 p.Ser327Asn (human) (Q8N3U4 other isoform, or with tags, fused parts or gaps p.S327N): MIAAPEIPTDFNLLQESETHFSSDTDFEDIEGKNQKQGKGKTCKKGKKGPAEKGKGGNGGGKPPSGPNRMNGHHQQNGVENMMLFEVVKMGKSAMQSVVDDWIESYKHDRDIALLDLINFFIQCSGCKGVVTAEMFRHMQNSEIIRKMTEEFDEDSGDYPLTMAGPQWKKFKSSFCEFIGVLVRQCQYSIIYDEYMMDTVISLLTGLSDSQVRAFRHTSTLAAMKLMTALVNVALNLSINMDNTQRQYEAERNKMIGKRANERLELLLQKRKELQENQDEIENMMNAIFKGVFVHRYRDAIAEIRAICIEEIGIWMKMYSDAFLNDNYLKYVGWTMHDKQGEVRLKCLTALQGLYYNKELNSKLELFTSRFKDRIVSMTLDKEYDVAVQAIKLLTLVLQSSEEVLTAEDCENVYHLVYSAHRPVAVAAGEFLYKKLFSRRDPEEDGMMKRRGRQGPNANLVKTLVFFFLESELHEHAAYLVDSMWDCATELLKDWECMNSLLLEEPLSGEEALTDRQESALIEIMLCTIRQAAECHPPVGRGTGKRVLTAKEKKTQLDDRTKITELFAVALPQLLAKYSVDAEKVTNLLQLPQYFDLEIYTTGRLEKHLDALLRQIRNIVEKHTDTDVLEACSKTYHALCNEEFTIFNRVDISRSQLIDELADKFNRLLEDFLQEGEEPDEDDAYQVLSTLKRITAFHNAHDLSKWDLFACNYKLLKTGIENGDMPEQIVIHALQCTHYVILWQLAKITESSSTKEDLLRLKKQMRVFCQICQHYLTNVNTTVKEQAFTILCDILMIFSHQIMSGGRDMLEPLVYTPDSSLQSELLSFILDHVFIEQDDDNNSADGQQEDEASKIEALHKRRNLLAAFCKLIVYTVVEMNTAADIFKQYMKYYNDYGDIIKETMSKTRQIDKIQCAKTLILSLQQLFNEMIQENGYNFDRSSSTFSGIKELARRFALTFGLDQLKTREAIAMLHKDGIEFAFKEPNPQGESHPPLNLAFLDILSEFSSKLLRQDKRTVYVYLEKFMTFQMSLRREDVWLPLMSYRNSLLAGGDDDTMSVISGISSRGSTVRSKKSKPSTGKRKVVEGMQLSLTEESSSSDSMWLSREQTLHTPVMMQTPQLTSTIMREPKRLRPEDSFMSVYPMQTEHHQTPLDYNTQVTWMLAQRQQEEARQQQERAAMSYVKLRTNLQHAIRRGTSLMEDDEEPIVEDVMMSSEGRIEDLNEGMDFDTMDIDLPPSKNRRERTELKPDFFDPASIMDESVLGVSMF
# [2] = target: T1, STAG2(80–930) p.Ser327Asn–SCC1(281–394) …; assay: ITC; MicroCal iTC200, 20 °C; 20 uM STAG2(80–930)–SCC1(281–394) complex in the cell, titrated with 300 uM pSGO1 peptide; 20 mM Tris-HCl pH 7.7, 200 mM NaCl, 5 mM TCEP; conditions: both partners purified
# [3] = target: T2, STAG2(80–930)–SCC1(281–394) complex, WT; assay: as above; conditions: both partners purified
# Chain of endogenous SMC1 (Q14683 whole entry): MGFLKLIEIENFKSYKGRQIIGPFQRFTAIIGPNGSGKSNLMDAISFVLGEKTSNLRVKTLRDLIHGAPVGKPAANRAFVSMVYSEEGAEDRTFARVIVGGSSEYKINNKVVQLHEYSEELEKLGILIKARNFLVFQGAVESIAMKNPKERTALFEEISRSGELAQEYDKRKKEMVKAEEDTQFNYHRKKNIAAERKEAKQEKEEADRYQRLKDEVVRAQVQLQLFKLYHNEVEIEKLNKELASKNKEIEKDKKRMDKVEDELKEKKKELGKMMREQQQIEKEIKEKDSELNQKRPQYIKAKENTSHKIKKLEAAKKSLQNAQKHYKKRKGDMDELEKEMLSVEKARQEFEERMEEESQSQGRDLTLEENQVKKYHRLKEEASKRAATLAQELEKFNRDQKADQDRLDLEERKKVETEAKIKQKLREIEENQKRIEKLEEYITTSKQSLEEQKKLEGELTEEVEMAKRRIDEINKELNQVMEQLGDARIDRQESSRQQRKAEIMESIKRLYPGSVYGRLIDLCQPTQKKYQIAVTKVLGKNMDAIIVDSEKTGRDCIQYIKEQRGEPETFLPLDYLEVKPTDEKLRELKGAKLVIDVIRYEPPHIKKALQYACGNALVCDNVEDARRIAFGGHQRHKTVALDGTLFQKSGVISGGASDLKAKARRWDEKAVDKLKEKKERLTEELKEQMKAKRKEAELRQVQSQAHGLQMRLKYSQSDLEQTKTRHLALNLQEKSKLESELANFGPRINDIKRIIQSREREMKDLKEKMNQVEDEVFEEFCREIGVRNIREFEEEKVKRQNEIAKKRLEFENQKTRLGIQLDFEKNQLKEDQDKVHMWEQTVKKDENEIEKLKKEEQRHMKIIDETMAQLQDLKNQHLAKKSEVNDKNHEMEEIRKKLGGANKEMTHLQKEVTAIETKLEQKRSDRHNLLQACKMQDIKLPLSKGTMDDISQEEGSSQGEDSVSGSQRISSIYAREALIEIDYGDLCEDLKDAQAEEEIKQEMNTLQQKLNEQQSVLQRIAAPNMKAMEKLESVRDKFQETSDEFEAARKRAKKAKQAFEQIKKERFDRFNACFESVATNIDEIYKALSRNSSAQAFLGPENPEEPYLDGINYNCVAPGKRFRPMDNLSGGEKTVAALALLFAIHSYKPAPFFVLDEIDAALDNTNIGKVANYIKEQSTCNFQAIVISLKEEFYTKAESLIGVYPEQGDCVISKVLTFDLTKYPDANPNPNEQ
reduction of binding against WT [1] [%],Kd [2] [nM],Kd [3] [nM],Molecule
50,,,endogenous SMC1 (from UniProt Q14683 1-1233) (natural protein)
,290,230,"KSENKKTVPQKKMHKSVSSNDAYNFNLEEGVHL[pT]PFRQKVS (peptide, UniProt Q5FBB7 313-353, looked up, SGO1, human, residues 313-353; also called pSGO1; phospho-SGO1 peptide; source: synthetic peptide) [synthetic phospho-Thr346 SGO1 peptide containing residues 313–353 of human SGO1]"
